This series has as its system PFEK-protease D-G-6×HIS zymogen.

PFEK-protease D-G-6×HIS zymogen, sequence (chain, as listed by the source): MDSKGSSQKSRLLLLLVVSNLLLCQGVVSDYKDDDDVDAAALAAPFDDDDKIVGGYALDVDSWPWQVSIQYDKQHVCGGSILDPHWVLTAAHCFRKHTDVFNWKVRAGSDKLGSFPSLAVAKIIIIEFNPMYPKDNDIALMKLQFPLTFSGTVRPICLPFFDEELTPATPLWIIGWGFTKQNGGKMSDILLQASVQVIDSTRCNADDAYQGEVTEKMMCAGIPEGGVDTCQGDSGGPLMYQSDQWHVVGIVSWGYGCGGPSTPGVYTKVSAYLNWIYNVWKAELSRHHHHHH

Consider enterokinase, for which the “cleavage and activation of the zymogen (SDS-PAGE mobility shift and Western blot)” value was “This demonstrates the quantitative cleavage of the expressed and purified zymogen to generate the processed and activated protease”.
